The target of this assay is HA-Mdm2 (human) (UniProt Q00987).
Chain of HA-Mdm2 (human) (Q00987 whole entry): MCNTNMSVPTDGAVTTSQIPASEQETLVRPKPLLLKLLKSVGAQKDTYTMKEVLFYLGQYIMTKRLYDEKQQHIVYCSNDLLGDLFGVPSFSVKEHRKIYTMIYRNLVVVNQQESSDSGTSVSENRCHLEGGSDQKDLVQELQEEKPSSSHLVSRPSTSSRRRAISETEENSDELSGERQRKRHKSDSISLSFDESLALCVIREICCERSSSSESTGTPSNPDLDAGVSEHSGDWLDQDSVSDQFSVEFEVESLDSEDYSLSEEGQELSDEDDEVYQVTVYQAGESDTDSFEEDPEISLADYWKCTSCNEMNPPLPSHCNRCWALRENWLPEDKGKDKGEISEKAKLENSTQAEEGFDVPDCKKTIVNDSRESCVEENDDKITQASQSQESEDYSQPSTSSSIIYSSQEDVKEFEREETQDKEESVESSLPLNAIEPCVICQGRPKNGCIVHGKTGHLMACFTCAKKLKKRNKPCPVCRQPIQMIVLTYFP

B1: FLAG-MdmX (natural protein)
chain: MTSFSTSAQCSTSDSACRISPGQINQVRPKLPLLKILHAAGAQGEMFTVKEVMHYLGQYIMVKQLYDQQEQHMVYCGGDLLGELLGRQSFSVKDPSPLYDMLRKNLVTLATATTDAAQTLALAQDHSMDIPSQDQLKQSAEESSTSRKRTTEDDIPTLPTSEHKCIHSREDEDLIENLAQDETSRLDLGFEEWDVAGLPWWFLGNLRSNYTPRSNGSTDLQTNQDVGTAIVSDTTDDLWFLNESVSEQLGVGIKVEAADTEQTSEEVGKVSDKKVIEVGKNDDLEDSKSLSDDTDVEVTSEDEWQCTECKKFNSPSKRYCFRCWALRKDWYSDCSKLTHSLSTSDITAIPEKENEGNDVPDCRRTISAPVVRPKDAYIKKENSKLFDPCNSVEFLDLAHSSESQETISSMGEQLDNLSEQRTDTENMEDCQNLLKPCSLCEKRPRDGNIIHGRTGHLVTCFHCARRLKKAGASCPICKKEIQLVIKVFIA
The molecule B1 yielded an FRET (HTRF) signal of MdmX-stimulated Mdm2 autoubiquitination in vitro, against the baseline without MdmX; rises with MdmX concentration and with reaction time of 8 fold.

The values are drawn from article PMC4720891.
